Laboratory results reported in the Immune Epitope Database (IEDB).

Experiments:
[1] = molecular target: HLA-C*01:02; assay: IEDB peptide-MHC binding, purified MHC/direct/fluorescence; filed as Kd, often an IC50 or EC50 that approximates it; ≥ and ≤ were set here for values at or beyond the usual limits of such assays; settings: source organism: Homo sapiens
[2] = molecular target: HLA-A*24:02; assay: IEDB peptide-MHC binding, cellular MHC/competitive/fluorescence; ≥ and ≤ were set here for values at or beyond the usual limits of such assays; settings: source organism: Human herpesvirus 5 strain AD169
[3] = molecular target: HLA-A*32:15; assay: IEDB peptide-MHC binding, purified MHC/competitive/fluorescence; filed as Kd, often an IC50 or EC50 that approximates it; ≥ and ≤ were set here for values at or beyond the usual limits of such assays; settings: source organism: Rickettsia felis URRWXCal2
[4] = molecular target: HLA-B*15:02; assay: as above; settings: source organism: Rickettsia felis URRWXCal2
[5] = molecular target: HLA-B*83:01; assay: as above; settings: source organism: Rickettsia felis URRWXCal2
[6] = molecular target: HLA-B*15:42; assay: as above; settings: source organism: Rickettsia felis URRWXCal2
[7] = molecular target: HLA-B*40:13; assay: as above; settings: source organism: Rickettsia felis URRWXCal2
[8] = molecular target: HLA-C*06:02; assay: as above; settings: source organism: Rickettsia felis URRWXCal2
[9] = molecular target: HLA-B*27:20; assay: as above; settings: source organism: Rickettsia felis URRWXCal2
[10] = molecular target: HLA-A*32:07; assay: as above; settings: source organism: Rickettsia felis URRWXCal2
[11] = molecular target: HLA-C*14:02; assay: as above; settings: source organism: Rickettsia felis URRWXCal2
[12] = molecular target: HLA-B*45:06; assay: as above; settings: source organism: Rickettsia felis URRWXCal2
[13] = molecular target: HLA-B*46:01; assay: as above; settings: source organism: Rickettsia felis URRWXCal2
[14] = molecular target: HLA-A*30:01; assay: as above; settings: source organism: Human immunodeficiency virus 1
[15] = molecular target: HLA-B*57:01; assay: as above; settings: source organism: Human immunodeficiency virus 1
[16] = molecular target: HLA-B*15:09; assay: as above; settings: source organism: Human immunodeficiency virus 1
[17] = molecular target: HLA-B*38:01; assay: as above; settings: source organism: Human immunodeficiency virus 1
[18] = molecular target: HLA-A*26:01; assay: as above; settings: source organism: Human immunodeficiency virus 1
[19] = molecular target: HLA-B*15:17; assay: as above; settings: source organism: Human immunodeficiency virus 1
[20] = molecular target: HLA-B*08:01; assay: as above; settings: source organism: Human immunodeficiency virus 1
[21] = molecular target: HLA-A*01:01; assay: as above; settings: source organism: Human immunodeficiency virus 1
[22] = molecular target: HLA-A*80:01; assay: IEDB peptide-MHC binding, purified MHC/direct/fluorescence; filed as Kd, often an IC50 or EC50 that approximates it; ≥ and ≤ were set here for values at or beyond the usual limits of such assays; settings: source organism: Human immunodeficiency virus 1
[23] = molecular target: HLA-A*31:01; assay: as above; settings: source organism: Giardia lamblia ATCC 50803
[24] = molecular target: HLA-B*15:01; assay: as above; settings: source organism: Giardia lamblia ATCC 50803
[25] = molecular target: HLA-A*02:01; assay: as above; settings: source organism: Giardia lamblia ATCC 50803
[26] = molecular target: HLA-A*30:01; assay: as above; settings: source organism: Giardia lamblia ATCC 50803
[27] = molecular target: HLA-B*27:05; assay: as above; settings: source organism: Giardia lamblia ATCC 50803
[28] = molecular target: HLA-A*26:01; assay: as above; settings: source organism: Giardia lamblia ATCC 50803
[29] = molecular target: HLA-B*44:02; assay: as above; settings: source organism: Giardia lamblia ATCC 50803
[30] = molecular target: HLA-B*07:02; assay: as above; settings: source organism: Giardia lamblia ATCC 50803
[31] = molecular target: HLA-A*03:01; assay: as above; settings: source organism: Giardia lamblia ATCC 50803
[32] = molecular target: HLA-A*11:01; assay: as above; settings: source organism: Giardia lamblia ATCC 50803
[33] = molecular target: HLA-A*69:01; assay: as above; settings: source organism: Giardia lamblia ATCC 50803
[34] = molecular target: HLA-B*40:01; assay: as above; settings: source organism: Giardia lamblia ATCC 50803
[35] = molecular target: HLA-B*08:01; assay: as above; settings: source organism: Giardia lamblia ATCC 50803
[36] = molecular target: HLA-A*01:01; assay: as above; settings: source organism: Giardia lamblia ATCC 50803
[37] = molecular target: HLA-B*58:01; assay: as above; settings: source organism: Giardia lamblia ATCC 50803
[38] = molecular target: HLA-B*73:01; assay: as above; settings: source organism: Giardia lamblia ATCC 50803
[39] = molecular target: HLA-A*01:01; assay: IEDB peptide-MHC binding, purified MHC/competitive/radioactivity; ≥ and ≤ were set here for values at or beyond the usual limits of such assays; settings: source organism: Human papillomavirus 16
[40] = molecular target: HLA-A*24:03; assay: IEDB peptide-MHC binding, purified MHC/direct/fluorescence; filed as Kd, often an IC50 or EC50 that approximates it; ≥ and ≤ were set here for values at or beyond the usual limits of such assays; settings: source organism: Escherichia coli O157:H7
[41] = molecular target: HLA-C*04:01; assay: as above; settings: source organism: Nostoc punctiforme PCC 73102

ELHDHGVSSL showed a Kd [1] of 3.9 nM.

FFFDIDLLL was tested, and the IC50 [2] was ≥ 333000 nM.

With FMYALSRAF the Kd [3] was 27.7 nM, the Kd [4] was 2.2 nM and the Kd [5] was ≥ 5000 nM. For the same sequence, the Kd [6] was ≥ 5000 nM, the Kd [7] was 4.5 nM and the Kd [8] was 64.5 nM. The Kd [9] was ≤ 0.1 nM, the Kd [10] was 493 nM and the Kd [11] was ≤ 0.1 nM. The Kd [12] was ≥ 5000 nM and the Kd [13] was 6.6 nM.

With GTEEIRSLF the Kd [14] was 11000 nM, the Kd [15] was 347 nM and the Kd [16] was ≥ 20000 nM. The Kd [17] was ≥ 20000 nM, the Kd [18] was ≥ 20000 nM and the Kd [19] was 223 nM. For the same sequence, the Kd [20] was ≥ 20000 nM, the Kd [21] was ≥ 20000 nM and the Kd [22] was ≥ 20000 nM.

With IRNLVKRYK the Kd [23] was ≥ 20000 nM, the Kd [24] was ≥ 20000 nM and the Kd [25] was ≥ 20000 nM. The Kd [26] was 50.8 nM, the Kd [27] was 1210 nM and the Kd [28] was ≥ 20000 nM. For the same sequence, the Kd [29] was ≥ 20000 nM, the Kd [30] was ≥ 20000 nM and the Kd [31] was ≥ 20000 nM. For the same sequence, the Kd [32] was ≥ 20000 nM, the Kd [33] was ≥ 20000 nM and the Kd [34] was ≥ 20000 nM. For the same sequence, the Kd [35] was ≥ 20000 nM, the Kd [36] was ≥ 20000 nM and the Kd [37] was ≥ 20000 nM. For the same sequence, the Kd [38] was 3500 nM.

Sequence QVDYYGLYY has an IC50 [39] of 18 nM.

In the case of YWPTEGYEF, the Kd [40] is reported as ≤ 1 nM and the Kd [41] is reported as 222 nM.
